Results: patent US20240218057A1

Legend:
Experiment in all cases: cell-based or functional assay
[1] = biological target: wildtype SARS-COV-2 spike protein on pseudotyped virus (SARS-CoV-2) (UniProt P0DTC2)
[2] = biological target: wildtype SARS-CoV-2 spike protein (pseudovirus) (SARS-CoV-2) (UniProt P0DTC2)
[3] = biological target: SARS-CoV-2 spike protein (wild type, pSARS-COV-2-SΔ19) on HIV-1 pseudotyped particles (SARS-CoV-2) (UniProt P0DTC2)
[4] = biological target: SARS-COV-2 spike protein (pSARS-COV-2-SΔ19) on HIV-1 pseudotyped particles (SARS-COV-2) (UniProt P0DTC2)

Row | Substance | neutralization IC50 [1] | neutralization IC90 [1] | IC50 neutralization [2] | IC90 neutralization [2] | Neutralization activity IC50 [3] | Neutralization activity IC90 [3] | IC50 [4] | IC90 [4]
1 | C121 (antibody) | 0.0051 mg/L | 0.0198 mg/L | – | – | – | – | – | –
2 | C135 (antibody) | 0.00859 mg/L | 0.0406 mg/L | – | – | – | – | – | –
3 | C144 (antibody) | 0.00374 mg/L | 0.0159 mg/L | 0.0037 mg/L | 0.0159 mg/L | 0.00286 mg/L | 0.0405 mg/L | 0.00286 mg/L | 0.0405 mg/L
